Measurements taken from publication PMC3012730, “The Actinobacillus pleuropneumoniae HMW1C-Like Glycosyltransferase Mediates N-Linked Glycosylation of the Haemophilus influenzae HMW1 Adhesin” (PLoS ONE, 2010).

Assays:
[1] = test system: O=c1ccn([C@@H]2O[C@H](CO[P@@](=O)(O)O[P@@](=O)(O)O[C@H]3O[C@H](CO)[C@@H](O)[C@H](O)[C@H]3O)[C@@H](O)[C@H]2O)c(=O)[nH]1; assay: purified protein; details: apparent Km, fixed acceptor protein His-HMW1ct (standard 3.2 µM), 50 mM HEPES pH 8.0, 50 mM KCl, 5 mM MgCl2, room temperature
[2] = test system: O=c1ccn([C@@H]2O[C@H](COP(=O)(O)OP(=O)(O)O[C@H]3O[C@H](CO)[C@H](O)[C@H](O)[C@H]3O)[C@@H](O)[C@H]2O)c(=O)[nH]1; assay: purified protein; details: apparent Km, fixed acceptor protein His-HMW1ct (standard 3.2 µM), 50 mM HEPES pH 8.0, 50 mM KCl, 5 mM MgCl2, room temperature

ApHMW1C (Actinobacillus pleuropneumoniae serovar 5b str. L20)
Km [1]: 38.9 ± 5.8 µM | Vmax [1]: 0.109 µmol/min/mg | kcat [1]: 0.13 ± 0.005 s⁻¹ | kcat/Km [1]: 3300 ± 800 M⁻¹ s⁻¹ | Km [2]: 147.5 ± 24.8 µM | Vmax [2]: 0.0643 µmol/min/mg | kcat [2]: 0.077 ± 0.005 s⁻¹ | kcat/Km [2]: 520 ± 210 M⁻¹ s⁻¹
